In patent US20030215852A1 (Pfizer, published 2003):

Target: T1, Pablo (pro-apoptotic Bcl-XL binding protein) (human, UniProt Q92558 1-559)
T1 sequence: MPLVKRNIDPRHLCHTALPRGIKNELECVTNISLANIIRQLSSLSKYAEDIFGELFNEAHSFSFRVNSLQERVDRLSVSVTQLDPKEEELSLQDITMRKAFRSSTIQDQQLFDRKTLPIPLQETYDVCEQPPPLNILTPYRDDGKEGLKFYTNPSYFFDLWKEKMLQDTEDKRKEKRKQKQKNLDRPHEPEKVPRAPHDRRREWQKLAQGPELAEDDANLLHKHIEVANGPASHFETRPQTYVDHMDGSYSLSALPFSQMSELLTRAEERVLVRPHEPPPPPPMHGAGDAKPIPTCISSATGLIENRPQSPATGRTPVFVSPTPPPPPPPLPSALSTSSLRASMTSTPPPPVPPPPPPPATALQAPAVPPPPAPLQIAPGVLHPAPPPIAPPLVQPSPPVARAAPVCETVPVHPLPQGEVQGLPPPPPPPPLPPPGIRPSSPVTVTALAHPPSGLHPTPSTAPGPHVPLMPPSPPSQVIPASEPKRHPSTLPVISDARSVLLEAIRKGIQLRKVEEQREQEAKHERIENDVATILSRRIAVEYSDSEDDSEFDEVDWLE
Assay: yeast two-hybrid assay

binding result: no binding
B1: pancortin 1 (other)
chain: MITNWMSQTLPSLVGLNTTKLSAAGGGTLDRSTGVLPTNPEESWQVYSSAQDSEGRCICTVVAPQQTMCSRDARTKQLRQLLEKVQNMSQSIEVLDRRTQRDLQYVEKMENQMKGLESKFKQVEESHKQHLARQFKAIKAKMDELRPLIPVLEEYKADAKLVLQFKEEVQNLTSVLNELQEEIGAYDYDELQSRVSNLEERLRACMQKLACGKLTGISDPVTVKTSGSRFGSWMTDPLAPEGDNRVWYMDGYHNNRFVREYKSMVDFMNTDNFTSHRLPHPWSGTGQVVYNGSIYFNKFQSHIIIRFDLKTETILKTRSLDYAGYNNMYHYAWGGHSDIDLMVDESGLWAVYATNQNAGNIVVSRLDPVSLQTLQTWNTSYPKRSAGEAFIICGTLYVTNGYSGGTKVHYAYQTNASTYEYIDIPFQNKYSHISMLDYNPKDRALYAWNNGHQILYNVTLFHVIRSDEL
notes: Tested in a yeast two-hybrid assay; also called BMZ
